Consider two molecules from PMC7014002, “Identification and Characterization of a β-N-Acetylhexosaminidase with a Biosynthetic Activity from the Marine Bacterium Paraglaciecola hydrolytica S66^T” (International Journal of Molecular Sciences, 2020).

For one data set, the target named is T1, SpHex (Streptomyces plicatus, UniProt O85361).
T1 construct: gene hex
T1 sequence (O85361 1-506): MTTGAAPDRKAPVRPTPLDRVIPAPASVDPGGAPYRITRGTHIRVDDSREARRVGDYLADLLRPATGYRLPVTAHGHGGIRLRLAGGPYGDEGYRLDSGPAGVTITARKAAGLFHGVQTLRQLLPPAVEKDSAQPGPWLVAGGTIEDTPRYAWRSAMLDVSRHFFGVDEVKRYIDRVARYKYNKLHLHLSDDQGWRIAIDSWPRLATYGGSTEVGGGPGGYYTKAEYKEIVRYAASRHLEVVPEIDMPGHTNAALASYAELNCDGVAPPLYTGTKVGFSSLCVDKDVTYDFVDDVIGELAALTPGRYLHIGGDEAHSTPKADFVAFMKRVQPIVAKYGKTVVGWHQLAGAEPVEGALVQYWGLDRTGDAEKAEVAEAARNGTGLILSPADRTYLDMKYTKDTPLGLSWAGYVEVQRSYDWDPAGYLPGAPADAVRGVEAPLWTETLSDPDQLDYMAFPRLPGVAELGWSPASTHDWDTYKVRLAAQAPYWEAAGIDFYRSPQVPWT
As to the kind of experiment: transglycosylation time course, TLC. Particulars: donor 100 mM; acceptor 200 mM lactose; 50 mM sodium phosphate pH 8.0, 0.5% BSA, 37 °C. Format: biochemical.

Substrate in data set [1]: CC(=O)N[C@H]1[C@H](Oc2ccc([N+](=O)[O-])cc2)O[C@H](CO)[C@@H](O)[C@@H]1O
As to the kind of experiment: purified protein. Format: biochemical, Paraglaciecola hydrolytica. The conditions noted are these: two-fold diluted McIlvaine buffer pH 6.0, 0.05% BSA, 37 °C.

Substrate in data set [2]: CC(=O)N[C@H]1[C@H](Oc2ccc([N+](=O)[O-])cc2)O[C@H](CO)[C@H](O)[C@@H]1O
Put plainly: purified protein. Format: biochemical, Paraglaciecola hydrolytica. The conditions noted are these: two-fold diluted McIlvaine buffer pH 6.0, 0.05% BSA, 37 °C.

Take `CC1=N[C@H]2[C@@H](O1)O[C@H](CO)[C@@H](O)[C@@H]2O` [NAG-oxazoline, 2-methyl-(1,2-dideoxy-α-D-glucopyrano)-oxazoline]: the “transglycosylation time course, TLC” value on SpHex is on record as “We here also demonstrated transglycosylation by the commercial GH20 N-acetylglucosaminidase from S. plicatus (SpHex)”.

B1: PhNah20A (Paraglaciecola hydrolytica) (protein)
chain: MYKIIIAGLGLLWSITSHGMQPLNLMPYPSEVQQQAGHFTLPSQLKVFTQHVSEARCELIKEQLEQLQQVEVLWVTAKDQANLLVEVEGVTQVMEVGGKSGELIPTLHDNEQYHLSVSPRLITLKAQTERGMLHGVQTLLQLVNRTQRSIPAVDIDDKPRFAWRGLLIDSVRHFMPVDTIKRQLRGMASAKLNVLHWHLTDDQGWRIASKAYPKLQLLASDGLFYTQQQIREVVQYAALLGIRVVPEFDVPGHASAIAVAYPELITQPGPYTMQRHWGVFEPLLDPSNPQVYQFIETIISELAELFPDVYVHIGGDEIEPTQWQQSQAVQHYMQQHQLADEHQLHAYFNQQVQQILSKYGKQMMGWDEVFATDLPKDIVVQSWRGLDSLQHIASSDYQVLLSTGYYVDQPQEAAYHYRNDPFTSFKQPSFKTQDIKHWQHWQFTMPRLKGSAVSGEFVLLSSEAGKQVLLRFNNQQARLINELEPRANLQRFTVDSWMGPSQFELDLSKDVIQQGRILIGNTPYSVSGNRLAQSTGSKALPAMLQDFVAASKVPTDLPKLHKNILGGEAAIWSEIVRADNLDLRLWPRLYAIAERLWSPATLTDEDAMYRRLTVMQTYASEVIGLEFTQQQRAGFKQLTSQDADIEPLIILAEAVEQAQYYTRHHSKFQHDNYHQLVELNQYVDYLSAQSLGLVELKRHIELFQQGDQQAKKFIEQLLQKWQKNLPKLKLLIANYPKLHSLAPLVTTLSQVVDIGQKLVAQCAKGEPLKPEHQRDVQQQLWQAAQLQQEMVVSSALAIEALAFKCRA
What is called Km is the substrate concentration at which the rate is half of its maximum. As a reminder, the kcat is the maximal rate divided by the concentration of active sites. By kcat/Km is commonly meant the turnover number divided by the Michaelis constant. Regarding B1, in “purified protein [1]”, the Km came to 430 ± 70 µM, the kcat worked out at 147 s⁻¹ and the kcat/Km was 341000 M⁻¹ s⁻¹. In addition, in the data set “purified protein [2]”, the Michaelis constant (Km) came out at 560 ± 110 µM, the kcat turned out to be 193 s⁻¹ and the kcat/Km amounted to 344000 M⁻¹ s⁻¹.
